Results taken from patent publication US20070135998A1.

What follows are substances tested against VLA1 I-domain protein (human) (UniProt P56199) (assay: KinExA, solution phase affinity, scFv).
Sequence of UniProt P56199 (P56199 173-364 limits assumed): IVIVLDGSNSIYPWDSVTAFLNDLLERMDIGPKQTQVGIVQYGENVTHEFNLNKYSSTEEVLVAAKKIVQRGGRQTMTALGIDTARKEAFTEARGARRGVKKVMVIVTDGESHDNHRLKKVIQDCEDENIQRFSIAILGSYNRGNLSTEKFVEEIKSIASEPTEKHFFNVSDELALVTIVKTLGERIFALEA
“AQC2 single chain Fv mutant, light chain N52K (scFv)” showed a Kd of 49 nM. With “AQC2 single chain Fv mutant, heavy chain K64E (scFv)” the Kd was 38 nM. Substance “AQC2 single chain Fv mutant, heavy chain K64N (scFv)” has a Kd of 4.1 nM. With “AQC2 single chain Fv mutant, heavy chain T50V (scFv)” the Kd was 14 nM. Substance AQC2 single chain Fv (original) (scFv) has a Kd of 25 nM. In the case of “AQC2 single chain Fv mutant, heavy chain K64D (scFv)”, the Kd is reported as 6.3 nM. With “AQC2 single chain Fv mutant, heavy chain K64Q (scFv)” the Kd was 12 nM. Substance “AQC2 single chain Fv mutant, light chain N52H (scFv)” has a Kd of 43 nM. With “AQC2 single chain Fv mutant, heavy chain S35Q (scFv)” the Kd was 37 nM. For “AQC2 single chain Fv mutant, heavy chain L60D (scFv)”, the Kd was 21 nM. In the case of “AQC2 single chain Fv mutant, heavy chain S35N (scFv)”, the Kd is reported as 39 nM. Substance “AQC2 single chain Fv mutant, heavy chain R31Q (scFv)” has a Kd of 8.2 nM. “AQC2 single chain Fv mutant, heavy chain D106N (scFv)” was tested, and the Kd was 67 nM. “AQC2 single chain Fv mutant, light chain H31R (scFv)” gave a Kd of 31 nM. With “AQC2 single chain Fv mutant, heavy chain Y32F (scFv)” the Kd was 34 nM. “AQC2 single chain Fv mutant, light chain N30V (scFv)” gave a Kd of 8.9 nM. In the case of “AQC2 single chain Fv mutant, light chain N52R (scFv)”, the Kd is reported as 17 nM.
